Results: the supplement of paper PMC9170038

Test system: MS2 coat protein
Assay: apparent KD of MS2 coat protein; designed switch direction (-1 OFF switch, 1 ON switch): -1; higher = weaker reporter binding
Procedure, shortened: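 Transcription of designed RNA switches on Illumina chips was done by stalled E. coli RNA polymerase. SNAP-549-labelled MS2 coat protein was then titrated in doubling steps from 0.7 or 1.5 nM to 3 µM, with steps of 0.8–1.5 h at the lowest and 10–20 min at the highest concentration. The per-design median over clusters of curve-fitted normalised fluorescence is reported as apparent KD.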

[1] = Eterna round: R95, input ligand: FMN 200 uM
[2] = Eterna round: R95, input ligand: microRNA oligo, concentration not stated
[3] = Eterna round: R95, input ligand: none
[4] = input ligand: microRNA oligo, concentration not stated

Row | Sequence | apparent KD of MS2 coat protein (input ligand: FMN 200 uM) | apparent KD of MS2 coat protein (input ligand: none) | further results
1 | CCGAAUAAGUAGGAUAUCGUAUCGGAAACGAUACGAGAAGGGCUAACAUGAGGAUCACCCAUGUUCCUUAACGG [Fiskers Ex 6 - 16] (puzzle: Exclusion 6) |  |  | apparent KD of MS2 coat protein [1]: 20 nM; apparent KD of MS2 coat protein [2]: 16.4 nM; apparent KD of MS2 coat protein [3]: 18.7 nM
2 | CCGCAAAUGGAGGAUAUCGUAUCGGAUACGAUACGAGAAGGCUAAACAUGAGGAUCACCCAUGUGUCCUAGCGG [Fiskers Ex 6 - 34] (puzzle: Exclusion 6) |  |  | apparent KD of MS2 coat protein [2]: 10.9 nM
3 | CCGCUACAUGAGGAUCACCCAUGUCAGGAUAUCGUACGUUCGUCGAUAGACGAUCGUACGAGAAGGGUGAGCGG [Mat - Exclusion 1 - Eli Mod - D37] (Eterna round: R97, puzzle: Exclusion 1) | 156 nM | 209 nM | 
4 | CCGCUCCGUGUAGGAUAUCGUUGUACCCUGCGGCGAGAAGGACAUGAGGAUCACCCAUGUAUGUUAUUAUCACGCGUGGCGCAC [Design 71] (Eterna round: R96, puzzle: Exclusion NG 1) | 18 nM | 19.3 nM | apparent KD of MS2 coat protein [4]: 15.8 nM
5 | CCGGAAGUACAGGAUAUCGUAACGGAUACGUUACGAGAAGGGUAUACAUGAGGAUCACCCAUGUGUCCUACCGG [Mat - Exclusion 6 - Eli Mod - D95] (puzzle: Exclusion 6) |  |  | apparent KD of MS2 coat protein [1]: 27.8 nM; apparent KD of MS2 coat protein [2]: 26 nM; apparent KD of MS2 coat protein [3]: 27.1 nM
6 | CCGGUAUAGGAGGAUAUAGGAGUCGAUAGACACCUAGAAGGCCUGACAUGAGGAUCACCCAUGUGUCCUUCCGG [Fiskers Ex 6 - 95] (puzzle: Exclusion 6) |  |  | apparent KD of MS2 coat protein [2]: 17.7 nM
7 | CCGGUUUAGGAGGAUAUAGGAGUCGAUAGACACCUAGAAGGCCUAACAUGAGGAUCACCCAUGUGACCUUCCGG [Mod of Eli 30 - Jieux - Exclusion 6] (Eterna round: R97, puzzle: Exclusion 6) | 234 nM | 76 nM | 
8 | CCGUAACAUGAGGAUCACCCAUGUCAGGAUAUUCCAAAAUCGUCGAAAGACGAUAACAGAAGAAGGGACAGUGG [Fiskxlusion 5 - Jieux - Exclusion 1] (Eterna round: R97, puzzle: Exclusion 1) | 104 nM | 111 nM | 
9 | CCGUGCACGCUCCGGUCCUACAUGAGGAUCACCCAUGUGGUCCGGUGGCGUGGGUCGCCGGACUUGGCUCGUCUUGU [salish99_S_TOV1_R5_018] (Eterna round: R97, puzzle: Sensor, turn-off variant 1) | 16.3 nM | 17.4 nM | 
10 | CCGUGGUUAGGAUAUUCGAAUGAGCACAUGAGGAUCACCCAUGUCUGAAUUGACAGCCGAGAAGAAGGAACCACUC [Eternabot (L2) Solution 24] (Eterna round: R97, puzzle: Exclusion 5) | 29.5 nM | 23.3 nM | 
11 | CCUAGUUGGUAAGGAUAUCCUACACUAUUCUGACCCGUGCAAGCUACAUGAGGAUCACCCAUGUGGGAGAAGGUGCGUCAACGU [Design 10] (Eterna round: R96, puzzle: Exclusion NG 2) | 21.3 nM | 23.8 nM | apparent KD of MS2 coat protein [4]: 18.2 nM
12 | CCUAUGUUAGGAUAUCGGCAUCCCGGGCAGGUAGCCAGGACCGAGAAGGGACAUGAGGAUCACCCAUGUCAAAU [Eternabot (Original) Solution 4] (Eterna round: R97, puzzle: Exclusion 4) | 15.9 nM | 19.1 nM | 
13 | CCUCAGUGAGGAUAUGGUAGACACAAUCGGGAUUGAGAAGGCCAGAAGGUACAUGAGGAUCACCCAUGUAAUCA [Eternabot (L2) Solution 58] (Eterna round: R97, puzzle: Exclusion 4) | 27.2 nM | 21.9 nM | 
14 | CCUCAUAUUUAGGAUAUGAUUGGUAAUUAUUAGUUAGAAGGAGGUACAUGAGGAUCACCCAUGUAAAAUUUUUU [-13.7, -10.8 kcal, 32% A] (Eterna round: R97, puzzle: Exclusion 6) | 19.7 nM | 19.6 nM | 
15 | CCUCCACAUGAGGAUCACCCAUGUCAGGAUAUCGUGUGUUUUUUUUCGGUCUUGCGUGCGAGAAGGGACGUCUU (puzzle: Exclusion 1) |  |  | apparent KD of MS2 coat protein [2]: 32.5 nM
16 | CCUCCCUGAGGAUAUCCACCCUCAUACAUGAGGAUCACCCAUGUUCAACCCUGGGUUCCCGGAGAAGGCAGUUUCC [Megrez-2.4] (Eterna round: R97, puzzle: Exclusion 5) | 226 nM | 235 nM | 
17 | CCUCGACAUGAGGAUCACCCAUGUCAGGAUAUUGUGUUUUGGGUUUUUUACCUUUUGGCAAGAAGGGAUGUGUG [LRO-Excl1-19] (puzzle: Exclusion 1) |  |  | apparent KD of MS2 coat protein [2]: 14.4 nM
18 | CCUCUACAUGAGGAUCACCCAUGUGAGGAUAUCAAAAUCAGGGCGGCUCCCUGACCCAUGAGAAGGUGCAUGGA [EX1 A.5] (Eterna round: R97, puzzle: Exclusion 1) | 31 nM | 16.8 nM | 

Row | Sequence | apparent KD of MS2 coat protein (input ligand: FMN 200 uM) | apparent KD of MS2 coat protein (input ligand: none) | further results
19 | CCUCUACAUGAGGAUCACCCAUGUUAGGAUAUGCCGGCCGACCUCGGGUGUGUAAUACGCAGAAGGAACGUUAC [Eternabot (Original) Solution 49] (Eterna round: R97, puzzle: Exclusion 1) | 835 nM | 2390 nM | 
20 | CCUUAGUCACAGGAUAUGCUCAUCUAAUGAUGAGCAGAAGGGUGAACAUGAGGAUCACCCAUGUUUAUCAAGGG [Omei Ex6 E3] (Eterna round: R97, puzzle: Exclusion 6) | 300 nM | 274 nM | 
21 | CCUUUGUCAGGAUAUCAGAACGCGCUCGAAAGGAACGCAAAUGAGAAGGGACAUGAGGAUCACCCAUGUAAAGA [Enenrixe] (puzzle: Exclusion 4) |  |  | apparent KD of MS2 coat protein [1]: 158 nM; apparent KD of MS2 coat protein [2]: 42.8 nM; apparent KD of MS2 coat protein [3]: 45 nM
22 | CCUUUGUCAGGAUAUCGUGCAUACAACGAAAGUUCUAUGUGCGAGAAGGGACAUGAGGAUCACCCAUGUUACGG [Omei Ex4 A3] (Eterna round: R97, puzzle: Exclusion 4) | 172 nM | 368 nM | 
23 | CGAAUUCGUUAGGAUAUGAGGCAGAGGUCCGCCUCAGAAGGAAUGACAUGAGGAUCACCCAUGUAGACCCAAGG [Eternabot (Original) Solution 1] (Eterna round: R97, puzzle: Exclusion 6) | 18.9 nM | 19.1 nM | 
24 | CGAGCUCAUGUGAGGAUAUACCUAUGGAUACAUAGGUAGAAGGCACAUGAGGAUCACCCAUGUCCUUGAGCUCG [jl-bmx4-4.59 Eli mod] (Eterna round: R97, puzzle: Brourd's mod of Exclusion 4) | 309 nM | 50.4 nM | 
25 | CGAGCUGCUGUGAGGAUAUACCUGUGGGUGCGUGGGUAGAAGGCACAUGAGGAUCACCCAUGUCCUGCAGCUCG [salish99_bmx4_r4_105] (Eterna round: R97, puzzle: Brourd's mod of Exclusion 4) | 594 nM | 1060 nM | 
26 | CGAUGAGGAGUGAGGAUAUCGUGUUCGAAAGAACGUGAGAAGGCACAUGAGGAUCACCCAUGUGAACCUUGUCG [Omei Ex4B A10] (Eterna round: R97, puzzle: Brourd's mod of Exclusion 4) | 22.5 nM | 15.8 nM | 
27 | CGAUGUUAUGUCAGGAUAUACAUUGCGAAAGCAAUGUAGAAGGGACAUGAGGAUCACCCAUGUCCUAACCAUCG [Omei A 3] (puzzle: Brourd's mod of Exclusion 4) |  |  | apparent KD of MS2 coat protein [2]: 12.7 nM
28 | CGCGACUCAGGAUAUACAUGAGGAUCACCCAUGUGGAACGACUGGGUCGAUAAAAGGUGUAGAAGGGAGGAAAA [Invebies] (puzzle: Exclusion 3) |  |  | apparent KD of MS2 coat protein [1]: 15.4 nM; apparent KD of MS2 coat protein [2]: 12.6 nM; apparent KD of MS2 coat protein [3]: 15.4 nM
29 | CGCGCCUGGGUCGAACGACACAUGAGGAUCACCCAUGUCAGAGGCGUAGAAUGCACAAGCUUUGACCUCGUUACGCU [Eternabot (L2) Solution 39] (Eterna round: R97, puzzle: Sensor, turn-off variant 1) | 18 nM | 18.5 nM | 
30 | CGCGCCUUUGUCAGGAUAUUCGGACGAGCCCGGCCGGAGAAGGGACUUGAGGAUCACCCAAGUGACGCGAAGAC [Anrearra] (Eterna round: R97, puzzle: Brourd's mod of Exclusion 4) | 35.1 nM | 31.9 nM | 
31 | CGCUGGACAGGAUAUGUUCUUGGGCACUUGAGGAUCACCCAAGUCAUCGGGACAUCAGGCACAGAAGGGUUGUUGG [salish99_ex5_r4_028] (Eterna round: R97, puzzle: Exclusion 5) | 25.5 nM | 27.1 nM | 
32 | CGGCAUGUCUGAGGAUAUCUGCACGUUUAGUGCAGAGAAGGCAGAACAUGAGGAUCACCCAUGUAGAUCAUUAACCGAUUAAUU [ENG1/7-A2] (Eterna round: R96, puzzle: Exclusion NG 1) |  |  | apparent KD of MS2 coat protein [4]: 182 nM
33 | CGGCGACAUGAGGAUCACCCAUGUGAGGAUAUGACGGGAAAAGCGUGAGCAGUUUGUGGCAGAAGGCGCGUAGG [salish99_ex1_r4_083] (Eterna round: R97, puzzle: Exclusion 1) | 23.5 nM | 117 nM | 
34 | CGGGCAUGAGGAUAUCGAGGUUAGUACAUGAGGAUCACCCAUGUUAUCCAGGUGUCGGUUCGAGAAGGCAUGGCCG [LRO-Ex5-11] (puzzle: Exclusion 5) |  |  | apparent KD of MS2 coat protein [1]: 464 nM; apparent KD of MS2 coat protein [2]: 230 nM; apparent KD of MS2 coat protein [3]: 340 nM
35 | CGGGCCGGCCUUCCGGCCGGCCCGACAUGAGGAUCACCCAUGUAGGAUAUCCCGGCUGCCGGCCGGGAGAAGGGCGUGCGCUUU [-47.6, -45.1 kcal, 14% A] (Eterna round: R96, puzzle: Exclusion NG 3) | 36.5 nM | 36.5 nM | apparent KD of MS2 coat protein [4]: 20.8 nM
